Experimental data as given in patent US20150037339A1 (Regeneron, published 2015).

What was measured:
Activin A [1] = target: T1, Activin A (human, UniProt P08476 311-426); test: Octet cross-competition; binder on anti-hFc tip; 50 nM hActivin A pre-bound with 1 uM H4H10423P (col 4); black box
T1 construct: Homodimer of two βA subunits; bought from R&D Systems (#338-AC); also called inhibin-βA dimer; human Activin A
T1 sequence: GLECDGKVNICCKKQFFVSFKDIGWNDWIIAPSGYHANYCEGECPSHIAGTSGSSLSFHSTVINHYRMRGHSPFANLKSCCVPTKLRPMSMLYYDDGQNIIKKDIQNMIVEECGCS
Experimental: (§1) No. 8,309,082) and Control 3 (MAB3381, available from R&D Systems, Inc., Minneapolis, Minn.) were also included in the assays. All assays were performed at 25° C. with a microtiter plate shaking rate of 1000 rpm in Octet HBST buffer (0.01 M HEPES pH7.4, 0.15M NaCl, 3 mM EDTA, 0.05% v/v Surfactant P20, 0.1 mg/mL BSA) according to manufacturer's instructions (ForteBio Corp., Menlo Park, Calif.). […] Any remaining anti-hFc binding sites on the tips were blocked by incubating the tips in a 50 ug/mL solution of irrelevant antibody for 5 minutes.

Activin A [2] = target: T1, Activin A; test: Octet cross-competition; binder on anti-hFc tip; 50 nM hActivin A pre-bound with 1 uM Control 1 (col 10); black box
Experimental: as §1

Activin A [3] = target: T1, Activin A; test: Octet cross-competition; binder on anti-hFc tip; 50 nM hActivin A pre-bound with 1 uM H4H10446P2 (col 1); white box
Experimental: as §1

Activin A [4] = target: T1, Activin A; test: Octet cross-competition; binder on anti-hFc tip; 50 nM hActivin A pre-bound with 1 uM H4H10468P2 (col 2); white box
Experimental: as §1

Activin A [5] = target: T1, Activin A; test: Octet cross-competition; binder on anti-hFc tip; 50 nM hActivin A pre-bound with 1 uM H4H10440P2 (col 9); black box
Experimental: as §1

Activin A [6] = target: T1, Activin A; test: Octet cross-competition; binder on anti-hFc tip; 50 nM hActivin A pre-bound with 1 uM Control 3 (col 11); black box
Experimental: as §1

Activin A [7] = target: T1, Activin A; test: Octet cross-competition; binder on anti-hFc tip; 50 nM hActivin A mixed with 1 uM Isotype control 12 (-) (col 12); dark grey box
Experimental: as §1

Activin A [8] = target: T1, Activin A; test: Octet cross-competition; binder on anti-hFc tip; 50 nM hActivin A pre-bound with 1 uM H4H10436P2 (col 8); black box
Experimental: as §1

Activin A [9] = target: T1, Activin A; test: Octet cross-competition; binder on anti-hFc tip; 50 nM hActivin A pre-bound with 1 uM H4H10429P (col 6); black box
Experimental: as §1

Activin A [10] = target: T1, Activin A; test: Octet cross-competition; binder on anti-hFc tip; 50 nM hActivin A pre-bound with 1 uM H4H10432P2 (col 7); black box
Experimental: as §1

Activin A [11] = target: T1, Activin A; test: Octet cross-competition; binder on anti-hFc tip; 50 nM hActivin A pre-bound with 1 uM H4H10442P2 (col 3); white box
Experimental: as §1

Activin A [12] = target: T1, Activin A; test: Octet cross-competition; binder on anti-hFc tip; 50 nM hActivin A mixed with 1 uM Isotype control 13 (-) (col 13); dark grey box
Experimental: as §1

Activin B [13] = target: T2, Activin B (human, UniProt P09529 293-407); test: SPR, captured mAb, 37C
T2 construct: Homodimer of two βB subunits; R&D Systems #659-AB
T2 chain: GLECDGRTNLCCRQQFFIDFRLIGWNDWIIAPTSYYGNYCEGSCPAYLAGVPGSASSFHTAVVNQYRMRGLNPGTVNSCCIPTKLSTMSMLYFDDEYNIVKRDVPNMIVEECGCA
Procedure, shortened: (§2)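 Reported half-lives follow ln2/(60*kd) in minutes, with KD taken as kd/ka. Both rest on fits to binding data from 240 s of association and 600 s of buffer dissociation.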

Activin A [14] = target: T1, Activin A; test: SPR, captured mAb, 37C
Procedure, shortened: as §2

Activin B [15] = target: T2, Activin B; test: SPR, captured mAb, 25C
Procedure, shortened: as §2

Activin A [16] = target: T1, Activin A; test: SPR, captured mAb, 25C
Procedure, shortened: as §2

B1: H4H10430P (antibody, human IgG4, V domains shown)
VH: EVQLVESGGGLVQPGRSLRLSCKASGFAFDDFAMHWVRQAPGKGLEWVSGIVWNSGDIGYADSVKGRFTISRDNAKNSLYLQLNSLRTEDTALYFCVKDMVRGLMGFNYYGMDVWGQGTTVTVSS
VL: EIVLTQSPATLSLSPGERATLSCRASQTISTYLVWYRQRPGQAPSLLIYDASNRATDIPARFSGSGSGTDFTLTISSLEPEDFAVYYCQQRSNWPITFGQGTRLEIK
notes: also called H4H1430P; H4H10430P2
Work on B1 yielded a binding response (Activin A [1]) of 0.33, a binding response (Activin A [2]) of 0.2 and a binding response (Activin A [3]) of 1.55. The binding response (Activin A [4]) was 1.84, the binding response (Activin A [5]) was 0.31 and the binding response (Activin A [6]) was -0.03. It also gave a binding response (Activin A [7]) of 0.49, a binding response (Activin A [8]) of 0.31 and a binding response (Activin A [9]) of 0.62. For the same binder, the binding response (Activin A [10]) was 0.26, the binding response (Activin A [11]) was 1.76 and the binding response (Activin A [12]) was 0.27. The “50 nM Ag Bound (RU)” value (Activin B [13]) was 3.6 RU, the binding result (Activin B [13]) was “no binding (tested: 50 nM)” and the “Activin A-20 nM (RU)” value (Activin A [14]) was 25 RU. It also gave a Kd (Activin A [14]) of 3.97 pM, a koff (Activin A [14]) of 0.000151 s⁻¹ and a kon (Activin A [14]) of 3.8e+07 M⁻¹ s⁻¹. For the same binder, the t1/2 (Activin A [14]) was 1.27 h, the “50 nM Ag Bound (RU)” value (Activin B [15]) was 3.9 RU and the “Activin A-20 nM (RU)” value (Activin A [16]) was 19.4 RU. For the same binder, the Kd (Activin A [16]) was 3.52 pM, the koff (Activin A [16]) was 0.000167 s⁻¹ and the kon (Activin A [16]) was 4.75e+07 M⁻¹ s⁻¹. The t1/2 (Activin A [16]) was 1.15 h.
